Patent US5336488A, “Method of treating or preventing mastitis in animals with involuting mammary glands by administering recombinant cytokines” (American Cyanamid Company, priority 1992, dated 1994)

How the values were obtained:
S. aureus = experiment: Prevention of S. aureus mastitis in lactating animals; type: in vivo, S. aureus (in lactating Holstein dairy cattle); settings: for % CONTROL / % INFECTED: vs Control 1; for protection from subsequent S. aureus challenge: intramammary infusion, Table 1; for most efficacious time of administration for protective effect: relative to S. aureus challenge
Source text: This maximal protection correlates with the peak quantitative biological response for this cytokine. […] This also correlates with the peak quantitative biological response of this cytokine and also marks the qualitative increase in phagocytosis and inducible superoxide, FIG. 2D & 2E.
^1 Single intramammary infusion administered after the PM milking. A
total of 100 mammary glands from 22 different lactating Holstein dairy
^2 All glands are free of bacteria on 5 successive samples after the
AM milking prior to the initial infusion.
^3 The total dose in mass of protein is indicated. The biological
^4 Infusions of cytokines were administerd simultaneously with S.
aureus 0, 24 or 48 hours proir to challenge with 30-200 CFUs of S.
^5 Individual quarters are considered cured if the milk samples remai
free of S. aureus. for 14 days after intramammary challenge with of S.
^6 The % Control = (1 - {% Infected After Therapy divided by Infected
in Control Quarters)} × 100.
*Quarters in Control 1 are challenged with 250 CFUs of S. aureus..
Quarters in Control 2 are challenged with 30 CFUs of S. aureus.

[1] = Specific biological activity of recombinant cytokine protein; settings: for in vitro specific bioactivities: r-BoIL-1 compared with r-BoIL-2; for biological activity: mass of protein
[2] = Milk production in lactating glands after intramammary infusion or intramuscular injection; type: in vivo, bovine (lactating dairy cows); settings: for decrease of milk production: FIG. 3A
Method: FIGS. 3(A-I): Milk Production After Intramammary Infusion or Intramuscular Injection of r-BoIL-2 into Lactating Dairy Cows
Mean milk production in kilograms +/- Standard Error is recorded for 8 lactating dairy cows after intramammary infusion of r-BoIL-2 or no treatment. Data is shown as a percentage of the average milk production (Standard Deviation) compared to the first five days prior to Treatment (mean for 100% production level ). Production after r-BoIL-2 intramammary infusion with total dosing amounting to 4.5 mg or 13.5 mg in quarters infected with S. aureaus is compared to infected, untreated cows for a 6 day time period, panel A. Similarly, production is also followed in 7 lactating injections of r-BoIL-2 at 2.5 μg/kg/day for 5 days and compared to 3 normal PBS injected controls, panel B. All cows are in mid to late stages of their second or third lactation at the time of r-BoIL-2 therapy. All effects on milk production are transient, returning to pre-treatment levels within 96 hours after cessation of treatment.
In vivo measurement of daily milk production is also monitored for both intramammary infusions and intramuscular injection. Cows are milked morning and evening and the milk weighed and recorded in total kilograms per day. The total dose of IL-2 administered per cow ranges from 2 to 96 mg. Single or multiple intramammary infusions of IL-2 have variable effects on individual animal's milk production based upon the total dose of r-BoIL-2 administered per day, FIG. 3 A (INTRAMAMMARY). Production decreases as much as 30-40% by the third infusion in the high dose animals (13.5 mg), whereas only a 12% decrease is observed at the 4.5 mg dose (not statistically different from time 0 production or control animals). […] This induction would be of great significance to assist in the morphological changes required during early lactation and serves to accelerate the protective mechanisms.

[3] = test system: IL-2 dependant BT-2 T cell line; experiment: Residual r-BoIL-2 bioactivity in dry cow gland secretions (BT-2 bioassay); type: in vivo, bovine
Method: FIGS. 4(A-B): Measurement of Residual r-BoIL-2 Bioactivity in Secretions from Dry Cow Glands Infused with r-BolL-2
Secretions from 4 quarters (4 different cows) are infused with 1 mg of r-BoIL-2 at drying-off (2 quarters) or not treated with r-BoIL-2 (2 quarters). Dry gland secretions are collected at time 0,72,144 and 240 hours after infusion. All samples shown are from the 72 hour time point and are diluted 1:50 and 1:200, and assayed for amount of biologically active r-BoIL-2 using the IL-2 dependant BT-2 T cell line, panel B. The BT-2 cell line is a bovine T cell line which requires IL-2 for growth. By measuring the degree of proliferation of this cell line, one directly measures the amount of biologically active IL-2 in a test media. Data is expressed as a mean ^3 H-thymidine incorporation +/- S.D. of triplicate samples of BT-2 cells for each of the individual numbered animals. […] A standard assay of various concentrations of r-BoIL-2 in 2% dry secretions is also shown in panel A as a positive control.
To specifically study the presence of cytokines after a single intramammary infusion into dry cows, […] from four different cows, are infused with 1 mg r-BoIL-2 at dry-off. […] Secretions from dry cow quarters treated with 1 mg of r-BoIL-2 are collected at 72, 144 and 240 hours after dry cow treatment. As with the milk, a 1:50 dilution of dry secretion samples is made and these solutions assayed by the bioassay using BT-2 and compared to r-BoIL-2 diluted in media.

[4] = Milk production in lactations immediately following dry cow therapy; type: in vivo, bovine (dairy cows); settings: FIG. 6
Method: FIG. 6: Milk Production Early in Lactation Before and After Intramammary Infusion of r-BoIL-2 as a Dry Cow Therapy
Mean milk production in kilograms; (S.D.) is shown for 4 cows for the first six days after the initiation of lactation for the lactation immediately prior to treatment and immediately following treatment. Production after r-BoIL-2 treatment or for the same time period for the lactation prior to treatment is monitored. Total dose of r-BoIL-2 received by each treated cow is 2 mg. Three cows are completing their second lactation and one is completing its third lactation at the time of r-BoIL-2 therapy. Post-treatment production from initiation of the third or fourth lactation is compared to the production for the first 6 days after initiation of the second or third lactation (pre-treatment) respectively of the same animals .
The effects of r-BoIL-2 on possible milk production after dry-cow therapy are also evaluated. Milk production for three dairy cows for the first five days of the lactation cycle (second or third lactation) prior to r-BoIL-2 treatment is compared to the milk production for the first five days of the lactation cycle (third or fourth lactation) immediately following r-BoIL-2 treatment, FIG. 6.

B1: recombinant bovine interleukin-1 (protein, UniProt P09428 114-266, looked up)
Interleukin-1 beta: APVQSIKCKLQDREQKSLVLASPCVLKALHLLSQEMNREVVFCMSFVQGEERDNKIPVALGIKDKNLYLSCVKKGDTPTLQLEEVDPKVYPKRNMEKRFVFYKTEIKNTVEFESVLYPNWYISTSQIEERPVFLGHFRGGQDITDFRMETLSP
notes: recombinant bovine interleukin-1, obtained from IMMUNEX Corp. Seattle, WA
% CONTROL (S. aureus; 1 μg, 0 hrs): 87%
% INFECTED (S. aureus; 1 μg, 0 hrs): 13%
% CONTROL (S. aureus; 1 μg, -24 hrs): 100%
% INFECTED (S. aureus; 1 μg, -24 hrs): 0%
% CONTROL (S. aureus; 1 μg, -48 hrs): 78%
% INFECTED (S. aureus; 1 μg, -48 hrs): 22%
protection from subsequent S. aureus challenge (S. aureus): capable of protecting the host from subsequent S. aureus challenge
most efficacious time of administration for protective effect (S. aureus): most efficacious if administered 24 hours prior to S. aureus challenge
in vitro specific bioactivities [1]: equivalent
biological activity [1]: 32,000 Units/μg

B2: recombinant bovine interleukin-2 (protein, UniProt P05016 21-155, looked up)
Interleukin-2: APTSSSTGNTMKEVKSLLLDLQLLLEKVKNPENLKLSRMHTFDFYVPKVNATELKHLKCLLEELKLLEEVLNLAPSKNLNPREIKDSMDNIKRIVLELQGSETRFTCEYDDATVNAVEFLNKWITFCQSIYSTMT
notes: recombinant bovine interleukin-2, obtained from IMMUNEX Corp. Seattle, WA
time to return of milk production to pre-treatment levels after cessation of treatment ([2]; intramammary or intramuscular r-BoIL-2): ≤ 96 h
decrease of milk production ([2]; intramammary, 4.5 mg, not statistically different from time 0 or control): 12%
decrease of milk production ([2]; intramammary, 13.5 mg, by the third infusion): 30-40%
effect on milk production ([2]; intramammary, total dose less than 4.5 mg): No statistically significant effect on milk production
detectable r-BoIL-2 bioactivity in dry gland secretions ([3]; 1 mg intramammary at dry-off, 72 hours after infusion, 1:50 dilution): less than 0.024 .eta.g/ml
residual r-BoIL-2 bioactivity in secretions ([3]; 1 mg intramammary at drying-off, 72, 144, 240 hours): No r-BoIL-2 activity could be detected at any time point
biologically active IL-2 in dry cow secretions ([3]; after 3 days, FIG. 4): no biologically active IL-2 is detected after 3 days
% CONTROL (S. aureus; 1 mg, 0 hrs): 23%
% INFECTED (S. aureus; 1 mg, 0 hrs): 77%
% CONTROL (S. aureus; 1 mg, -24 hrs): 89%
% INFECTED (S. aureus; 1 mg, -24 hrs): 11%
% CONTROL (S. aureus; 1 mg, -48 hrs): 63%
% INFECTED (S. aureus; 1 mg, -48 hrs): 37%
protection from subsequent S. aureus challenge (S. aureus): capable of protecting the host from subsequent S. aureus challenge
most efficacious time of administration for protective effect (S. aureus): most efficacious if administered 48 hours prior to S. aureus challenge
improvement in milk production at the following lactation ([4]; first five days of lactation vs prior lactation): 80%
inhibition of milk production at the following lactation ([4]; first five days of lactation): No inhibition of milk production
in vitro specific bioactivities [1]: equivalent
biological activity [1]: 22,000 Units/μg
biological activity ([1]; Table 3 footnote 3): 22,000 Units μg
